Reference: article PMC10200994 (2023)

B1: STAT5B (unphosphorylated, wild-type), fluorophore fusion [not stated] / STAT5A (unphosphorylated, wild-type), fluorophore fusion [not stated] (parent complex)
chain 1: MAVWIQAQQLQGEALHQMQALYGQHFPIEVRHYLSQWIESQAWDSVDLDNPQENIKATQLLEGLVQELQKKAEHQVGEDGFLLKIKLGHYATQLQNTYDRCPMELVRCIRHILYNEQRLVREANNGSSPAGSLADAMSQKHLQINQTFEELRLVTQDTENELKKLQQTQEYFIIQYQESLRIQAQFGPLAQLSPQERLSRETALQQKQVSLEAWLQREAQTLQQYRVELAEKHQKTLQLLRKQQTIILDDELIQWKRRQQLAGNGGPPEGSLDVLQSWCEKLAEIIWQNRQQIRRAEHLCQQLPIPGPVEEMLAEVNATITDIISALVTSTFIIEKQPPQVLKTQTKFAATVRLLVGGKLNVHMNPPQVKATIISEQQAKSLLKNENTRNDYSGEILNNCCVMEYHQATGTLSAHFRNMSLKRIKRSDRRGAESVTEEKFTILFESQFSVGGNELVFQVKTLSLPVVVIVHGSQDNNATATVLWDNAFAEPGRVPFAVPDKVLWPQLCEALNMKFKAEVQSNRGLTKENLVFLAQKLFNNSSSHLEDYSGLSVSWSQFNRENLPGRNYTFWQWFDGVMEVLKKHLKPHWNDGAILGFVNKQQAHDLLINKPDGTFLLRFSDSEIGGITIAWKFDSQERMFWNLMPFTTRDFSIRSLADRLGDLNYLIYVFPDRPKDEVYSKYYTPVPCESATAKAVDGYVKPQIKQVVPEFVNASADAGGGSATYMDQAPSPAVCPQAHYNMYPQNPDSVLDTDGDFDLEDTMDVARRVEELLGRPMDSQWIPHAQS
chain 2: MAGWIQAQQLQGDALRQMQVLYGQHFPIEVRHYLAQWIESQPWDAIDLDNPQDRAQATQLLEGLVQELQKKAEHQVGEDGFLLKIKLGHYATQLQKTYDRCPLELVRCIRHILYNEQRLVREANNCSSPAGILVDAMSQKHLQINQTFEELRLVTQDTENELKKLQQTQEYFIIQYQESLRIQAQFAQLAQLSPQERLSRETALQQKQVSLEAWLQREAQTLQQYRVELAEKHQKTLQLLRKQQTIILDDELIQWKRRQQLAGNGGPPEGSLDVLQSWCEKLAEIIWQNRQQIRRAEHLCQQLPIPGPVEEMLAEVNATITDIISALVTSTFIIEKQPPQVLKTQTKFAATVRLLVGGKLNVHMNPPQVKATIISEQQAKSLLKNENTRNECSGEILNNCCVMEYHQATGTLSAHFRNMSLKRIKRADRRGAESVTEEKFTVLFESQFSVGSNELVFQVKTLSLPVVVIVHGSQDHNATATVLWDNAFAEPGRVPFAVPDKVLWPQLCEALNMKFKAEVQSNRGLTKENLVFLAQKLFNNSSSHLEDYSGLSVSWSQFNRENLPGWNYTFWQWFDGVMEVLKKHHKPHWNDGAILGFVNKQQAHDLLINKPDGTFLLRFSDSEIGGITIAWKFDSPERNLWNLKPFTTRDFSIRSLADRLGDLSYLIYVFPDRPKDEVFSKYYTPVLAKAVDGYVKPQIKQVVPEFVNASADAGGSSATYMDQAPSPAVCPQAPYNMYPQNPDHVLDQDGEFDLDETMDVARHVEELLRRPMDSLDSRLSPPAGLFTSARGSLS

Variants of: B1
Assay: co-localization assay (quantitative fluorescence microscopy in HeLa cells); bait S5A-NES, test S5B-L82A; 27 cells (parent 17 cells); parent: 0.97

screen value	Variant
0.65	chain 1 L82A
